According to the DeepSol protein solubility set:

Assay: soluble on expression in E. coli; label from the status in PepcDB or PDB records

Row | Sequence | soluble on expression in E. coli
1 | MGSDKIHHHHHHGTVSWNLREMLAHAEETRKLMPICMDVRAIMATIQRKYKGIKIQEGIVDYGVRFFFYTSKEPVASIITKLNSLNEPLVTMPIGYVTHGFNLEEAARCMRSLKAPAVVSVSSPDAVTTYNGYLTSSSKTSEEHFVETVSLAGSYRDWSYSGQRTELGVEFLKRGDKIVYHTLESPVEFHLDGEVLSLDKLKSLLS | soluble
2 | MTKENICIVFGGKSAEHEVSILTAQNVLNAIDKDKYHVDIIYITNDGDWRKQNNITAEIKSTDELHLENGEALEISQLLKESSSGQPYDAVFPLLHGPNGEDGTIQGLFEVLDVPYVGNGVLSAASSMDKLVMKQLFEHRGLPQLPYISFLRSEYEKYEHNILKLVNDKLNYPVFVKPANLGSSVGISKCNNEAELKEGIKEAFQFDRKLVIEQGVNAREIEVAVLGNDYPEATWPGEVVKDVAFYDYKSKYKDGKVQLQIPADLDEDVQLTLRNMALEAFKATDCSGLVRADFFVTEDNQIYINETNAMPGFTAFSMYPKLWENMGLSYPELITKLIELAKERHQDKQKNKYKIDRSHHHHHH | soluble
3 | SKKFSWNTSFNFTRNVNKVEKLENPYVYGSRDMVRNEEGYALYSFWMYNQLYVDKQTGQAVFEDVNGDGQITVADRKIMGNANPKFFGGLTNTFKYAGFDLNVFFVYQYGNKVVSFDRILNEGGGTKDNNRGIFEYNMNRWQKPGDDTDVPRVTSVGNNYGIEQNSRFLEDGSFIRLKTLTLGYTVPVDFTKKYSVQSVRFFVTGTNLLLFTKYKGPDPEAVHTSEQNARGIDVGTPPQPVSVQGGLTITL | not soluble
4 | MTNNAVLQLRAERLARATRPFLARGNRVRRCQRCLLPLKSCLCDTLTPSQAKSRFCLVMFDTEPMKPSNTGRLIADILPDTAAFQWSRTEPPQALLELVQHPDYQPIVVFPASYAGEAREVISTPPAGKPPLFIMLDGTWPEARKMFRKSPYLDHLPVISVDLSRLSAYRLREIHAEGQYCTAEVAIALLDLAGDTEAATSLGEHFTRFKTRYLAGKTQHPGNVTALEHHHHHH | soluble
